To fix the notation:
B1: Hairpin Ribozyme (parent)
chain: GUCCUCUUUCACGUGCGCGUGAAAGAGAGAAGUGAACCAGAGAAACACACGUUGUGGUAUAUUACCUGGUA

Variants of B1 are the subject of this data set. Description: self-cleavage, relative activity (ratio to wild type); higher = more cleavage; co-transcriptional.
Consider GGCCUCUUUCACGUGCGCGUGAAAGAGAGAAGUGAACCAGAGAAACACACGUUGUUGUAUAUUACCUGGUA, for which the self-cleavage was 0.0924.
Consider GGCCUCUUUCACGUGCGCGUGAAAGAGAGAAGUGAACCAGAGAAACACACGUUGUCGUAUAUUACCUGGUA, for which the self-cleavage amounted to 0.0624.
For the variant GGCCUCUUUCACGUGCGCGUGAAAGAGAGAAGUGAACCAGAGAAACACACGUUGUGGUAUAUUACUUGGUA, the self-cleavage worked out at 0.163.
Turning to GGACUCUUUCACGUGCGCGUGAAAGAGAGAAGUGAACCAGAGAAACACACGUUGUGGUAUAUUACCUGGUA, the self-cleavage was 0.786.
GGCCUCUUUCACGUGCGCGUGAAAGAGAGUAGUGAACCAGAGAAACACACGUUGUGGUAUAUUACCUGGUA: the self-cleavage is 0.117.
For GGCCUCUUUCACGUGCGCGUGAAAGAGAGCAGUGAACCAGAGAAACACACGUUGUGGUAUAUUACCUGGUA the value was 0.108; for GGCCUCUUUCACGUGCGCGUGAAAGAGAGAAGUAAACCAGAGAAACACACGUUGUGGUAUAUUACCUGGUA, 0.37.
In the case of GGCCUCUUUCACGUGCGCGUGAAAGAGAGAAGUGAACCAGAGAAACACACGUUGUGGUAUACUACCUGGUA, the self-cleavage is 0.0918.
For GGCCUCUUUCACGUGCGCGUGAAAGAGACAAGUGAACCAGAGAAACACACGUUGUGGUAUAUUACCUGGUA the value was 0.122; for GGCCUCUUUCACGUGCGCGUGAAAGAGAGAAGUGAACCAGAGAAACACACGUUCUGGUAUAUUACCUGGUA, 0.155; for GCCCUCUUUCACGUGCGCGUGAAAGAGAGAAGUGAACCAGAGAAACACACGUUGUGGUAUAUUACCUGGAA, 0.241.
Turning to GCCCUCUUUCACGAGCGCGUGAAAGAGAGAAGUGAACCAGAGAAACACACGUUGUGGUAUAUUACCUGGUA, the self-cleavage came to 0.0424.
GGCCUCUUUCACGUGCGCGUGAAAGAGAGAAGUGAACCAGAGAAACAGACGUUGUGGUAUAUUACCUGGUA: the self-cleavage came out at 0.116.
For GGCCUCUUUCACGUGCGCGUGAAAGAGAGAAGUGAACCAGAGAAACAAACGUUGUGGUAUAUUACCUGGUA the value was 0.213; for GGCCUCUUUCACGUGCGCGUGAAAGAGAGAAGUGAACCAGAGAAACACACCUUGUGGUAUAUUACCUGGUA, 0.359; for GGCCUCUUUCACGUGCGCGUGAAAGAGAGAAGUGAACCAGAGAAACACACGUUGUGGUAUAUUGCCUGGUA, 0.159.
For GGCCUCUUUCACGUGCGCGUGAAAGAGAGAAGUGAACCAGAGAAACACACGUUGUGGUAUAUUCCCUGGUA the value was 0.165; for GGCCUCUUUCACGUGCGCGGGAAAGAGAGAAGUGAACCAGAGAAACACACGUUGUGGUAUAUUACCUGGUA, 0.186.
For GGCCUCUUUCACGUGCGCGCGAAAGAGAGAAGUGAACCAGAGAAACACACGUUGUGGUAUAUUACCUGGUA, the self-cleavage stood at 0.385.
As for GGCCUCUUUCACGUGCGCGAGAAAGAGAGAAGUGAACCAGAGAAACACACGUUGUGGUAUAUUACCUGGUA, the self-cleavage worked out at 0.225.
GGCCUCUUUCACGUGCACGUGAAAGAGAGAAGUGAACCAGAGAAACACACGUUGUGGUAUAUUACCUGGUA: the self-cleavage stood at 0.529.
GGCCUCUUUCACGUGCUCGUGAAAGAGAGAAGUGAACCAGAGAAACACACGUUGUGGUAUAUUACCUGGUA: the self-cleavage is 0.327.
On to GGCCUCUUUCACGUACGCGUGAAAGAGAGAAGUGAACCAGAGAAACACACGUUGUGGUAUAUUACCUGGUA, for which the self-cleavage is 0.55.
In the case of GGCCUCUUUCACGUGCGCGUGAAAGAGAGAAGUGAACCAGACAAACACACGUUGUGGUAUAUUACCUGGUA, the self-cleavage was 0.252.
For GGCCUCUUUCACGUGCGCGUCAAAGAGAGAAGUGAACCAGAGAAACACACGUUGUGGUAUAUUACCUGGUA, the self-cleavage is 0.364.
Consider GGCCUCUUUCACGUGCGCGUUAAAGAGAGAAGUGAACCAGAGAAACACACGUUGUGGUAUAUUACCUGGUA, for which the self-cleavage is 0.236.
Regarding GGCCUUUUUCACGUGCGCGUGAAAGAGAGAAGUGAACCAGAGAAACACACGUUGUGGUAUAUUACCUGGUA, the self-cleavage was found to be 0.303.
For GGCCUGUUUCACGUGCGCGUGAAAGAGAGAAGUGAACCAGAGAAACACACGUUGUGGUAUAUUACCUGGUA the value was 0.155; for GGCCUAUUUCACGUGCGCGUGAAAGAGAGAAGUGAACCAGAGAAACACACGUUGUGGUAUAUUACCUGGUA, 0.196; for GGCCUCUUUCACGUGCGCGUGUAAGAGAGAAGUGAACCAGAGAAACACACGUUGUGGUAUAUUACCUGGUA, 0.259.
Regarding GGCCUCUUUCACGUGCGCGUGAAAGAGAGAAGUGAACCAGAGUAACACACGUUGUGGUAUAUUACCUGGUA, the self-cleavage is 0.102.
As for GGCCUCUUUCACGUGCGCGUGAAAGAGAGAAGUGAACCAGAGGAACACACGUUGUGGUAUAUUACCUGGUA, the self-cleavage turned out to be 0.21.
Consider GGCCUCUUUCACGUGCGCGUGAAAGAGAGAAGUGAACCAGAGAAACACACGUUGUGGUGUAUUACCUGGUA, for which the self-cleavage came out at 0.225.
For GGCCUCUUUCACGUGCGCGUGAAAGAGAGAAGUGAACCAGAGAAACACACGUUGUGGUAUAUUACCUGAUA the value was 0.109; for GGCCUCUUUCACGUGCGCGUGAAAGAGAGAAGUGAACCAGAGAAACACACGUUGUGGUAUAUUACCUGUUA, 0.116.
On to GGCCUCUUUCACGUGCGCGUGAAAGAGAGAAGUGAACCAGAGAAACACACGUUGUGGUAUAUUACCUGGUC, for which the self-cleavage stood at 0.77.
For GGCCUCUUUCACGUGCGCGUGAAAGAGAGAAGUGAACCAGAGAAACACACGUAGUGGUAUAUUACCUGGUA, the self-cleavage worked out at 0.195.
Consider GCCCUCUUUCACGUGCGCGUGAAAGAGAGAAGUGAACCAGAGAAACACACGUUGUGGUAUAUUACCGGGUA, for which the self-cleavage is 0.0822.
For GGCCUCUUUCACGAGCGCGUGAAAGAGAGAAGUGAACCAGAGAAACACACGUUGUGGUAUAUUACCUGGUA, the self-cleavage came out at 0.216.
GGCCUCUCUCACGUGCGCGUGAAAGAGAGAAGUGAACCAGAGAAACACACGUUGUGGUAUAUUACCUGGUA: the self-cleavage was found to be 0.255.
In the case of GCCCUCUUUCACGUGCGCGCGAAAGAGAGAAGUGAACCAGAGAAACACACGUUGUGGUAUAUUACCUGGUA, the self-cleavage amounted to 0.273.
With GGCCUCUUUCACGUGCGCGUGAAAGAGAGAAGUGAACCAGAGAAACACCCGUUGUGGUAUAUUACCUGGUA, the self-cleavage is 0.0246.
Consider GGCCUCUUUCACGUGCGCGUGAAAGAGAGAAGUGAACCAGAGAAACACGCGUUGUGGUAUAUUACCUGGUA, for which the self-cleavage was found to be 0.241.
Regarding GGCCUCUUUCACGUGCGCGUGAAAGAGAGAAGUGAACCAGAGAAACACACGUUGUGGAAUAUUACCUGGUA, the self-cleavage stood at 0.263.
As for GGCCUCUUUCACGUGCGCGUGAAAGAGAGAAGUGAACCAGAGAAACACACGUUGUGGGAUAUUACCUGGUA, the figure is 0.255; as for GGCCUCUUUCACGUGCGCGUGAAAGAGAGAAGUGAACCAGAGAAACACACGUUGUGUUAUAUUACCUGGUA, 0.209; as for GGCCUCUUUCACGUGCGAGUGAAAGAGAGAAGUGAACCAGAGAAACACACGUUGUGGUAUAUUACCUGGUA, 0.379.
With GGCCUCUUUCACGUGCGGGUGAAAGAGAGAAGUGAACCAGAGAAACACACGUUGUGGUAUAUUACCUGGUA, the self-cleavage is 0.373.
For GCCCUCGUUCACGUGCGCGUGAAAGAGAGAAGUGAACCAGAGAAACACACGUUGUGGUAUAUUACCUGGUA the value was 0.105; for GCCCUCCUUCACGUGCGCGUGAAAGAGAGAAGUGAACCAGAGAAACACACGUUGUGGUAUAUUACCUGGUA, 0.246.
With GGCCUCUUUCACGUGCGCGUGAAAGAGAGAAGUGAACCAGAGAAACACACGUUGUGGUAUAUUAGCUGGUA, the self-cleavage was determined as 0.0852.
On to GGCCUCUUUCACGUGCGCGUGAAAGAGAGAAGUGAAGCAGAGAAACACACGUUGUGGUAUAUUACCUGGUA, for which the self-cleavage came to 0.0975.
As for GGCCUCUUUCACGUGCGCGUGAAAGAGAGAAGUGAACCAGAGAAACACACGUUGUGGUAUCUUACCUGGUA, the figure is 0.109; as for GGCCUCUUUCACGUGCGCGUGAAAGAGAGAAGUGAACCAGAGAAACACACGUUGUGGUAUGUUACCUGGUA, 0.15; as for GGCCUCUUUCACGUGCGCGUGAAAGAGAGAAGUGAACCAGAGACACACACGUUGUGGUAUAUUACCUGGUA, 0.108.
On to GGCCUCUUUCACUUGCGCGUGAAAGAGAGAAGUGAACCAGAGAAACACACGUUGUGGUAUAUUACCUGGUA, for which the self-cleavage came out at 0.246.
As to GGCCUCUUUCACCUGCGCGUGAAAGAGAGAAGUGAACCAGAGAAACACACGUUGUGGUAUAUUACCUGGUA, the self-cleavage is 0.29.
For the variant GGCCUCUUUCACGUGCGCGUGAAAGAGAGAAGUGAACCAGAGAAAUACACGUUGUGGUAUAUUACCUGGUA, the self-cleavage is 0.11.
On to GGCCUCUUACACGUGCGCGUGAAAGAGAGAAGUGAACCAGAGAAACACACGUUGUGGUAUAUUACCUGGUA, for which the self-cleavage was 0.242.
As to GGCCUCUUGCACGUGCGCGUGAAAGAGAGAAGUGAACCAGAGAAACACACGUUGUGGUAUAUUACCUGGUA, the self-cleavage was 0.206.
As to GCCCUCUUUCACGUGCGCGUGAAAGAGAGAAGUGAACCAGAGAAACACACGUUGUGGGAUAUUACCUGGUA, the self-cleavage is 0.148.
As for GGCCUCUUUCACGUGCGCGUGAAAGAGAGAAGUGAACGAGAGAAACACACGUUGUGGUAUAUUACCUGGUA, the figure is 0.172; as for GGCCUCUUUCACGUGCGCGUGAAAGAGAGAAGUGAACAAGAGAAACACACGUUGUGGUAUAUUACCUGGUA, 0.143; as for GGCCUCUUUCACGUGCGCGUGAAAGAGCGAAGUGAACCAGAGAAACACACGUUGUGGUAUAUUACCUGGUA, 0.384.
As for GGCCUCUUUCACGUGGGCGUGAAAGAGAGAAGUGAACCAGAGAAACACACGUUGUGGUAUAUUACCUGGUA, the self-cleavage stood at 0.267.
As for GGCCUCUUUCACGUGUGCGUGAAAGAGAGAAGUGAACCAGAGAAACACACGUUGUGGUAUAUUACCUGGUA, the self-cleavage amounted to 0.478.
For GGCCUCUUUCACGUGCGCGUGAAAGAGAGAAGUGAACCAGUGAAACACACGUUGUGGUAUAUUACCUGGUA the value was 0.71.
For the variant GGCCUCUUUCACGUGCGCGUGAAAGAGAGAAGUGAACCAGAGAAACACACGUUGUGGUAAAUUACCUGGUA, the self-cleavage worked out at 0.402.
GGCCUCUUUCACGUGCGCAUGAAAGAGAGAAGUGAACCAGAGAAACACACGUUGUGGUAUAUUACCUGGUA: the self-cleavage stood at 0.311.
As for GGCCUCUUUUACGUGCGCGUGAAAGAGAGAAGUGAACCAGAGAAACACACGUUGUGGUAUAUUACCUGGUA, the figure is 0.269; as for GGCCUCUUUGACGUGCGCGUGAAAGAGAGAAGUGAACCAGAGAAACACACGUUGUGGUAUAUUACCUGGUA, 0.287.
For the variant GGCCUCUUUCACGUGCGCGUGAAACAGAGAAGUGAACCAGAGAAACACACGUUGUGGUAUAUUACCUGGUA, the self-cleavage is 0.137.
For GCCCUCUUUCACGUGCGCGUGAAAGAGAGAAGUGAACCAGAGAAACACACGUUGUGGUAUAAUACCUGGUA the value was 0.0408; for GCCCUCUUUCACGUGCGCGUGAAAGAGAGAAGAGAACCAGAGAAACACACGUUGUGGUAUAUUACCUGGUA, 0.0916.
Turning to GGCCUCUUUCACGUGCGCGUGAAAGAGAGAAGUGAACCAGAGAAACCCACGUUGUGGUAUAUUACCUGGUA, the self-cleavage came out at 0.358.
Regarding GGCCUCUUUCACGUGCGCGUGAAAGAGAGAAGUGAACCAGAGAAACGCACGUUGUGGUAUAUUACCUGGUA, the self-cleavage is 0.0815.

Source of the values: the RNAGym collection of RNA variant scans (doi:10.7554/elife.80360).
